Experimental data as given in patent US20180282403A1, “AGENTS FOR REDUCING THE ACTIVITY OF GDF15” (GENAGON THERAPEUTICS AB, priority 2015, published 2018).
No end group written: not given here.

B1: AAAQEADGARSAVVAAGGGSSGQVTSNGSIGRDPPAETQPQNPPAQPAPNAGGGGSGGGGSGGGGS-Fc mouse IgG1 (protein)
chain: AAAQEADGARSAVVAAGGGSSGQVTSNGSIGRDPPAETQPQNPPAQPAPNAGGGGSGGGGSGGGGS-{Fc mouse IgG1}
notes: control protein, Fc fusion
B2: CLPTM1 peptide GDYYPIIYFNDYWNLQKDYYG (SEQ ID NO: 270) (peptide)
peptide: GDYYPIIYFNDYWNLQKDYYG
modifications: also: biotinylated, position not given here
notes: Immobilised in streptavidin wells; the entry carries one added C-terminal G; also called (273-292)
B3: CLPTM1 peptide KALYRRLATVHMSRMINKYKG (SEQ ID NO: 259) (peptide)
peptide: KALYRRLATVHMSRMINKYKG
modifications: also: biotinylated, position not given here
notes: Immobilised in streptavidin wells; the entry carries one added C-terminal G; also called (182-201)
B4: CLPTM1 peptide ITINIVDDHTPWVKGSVPPPG (SEQ ID NO: 262) (peptide)
peptide: ITINIVDDHTPWVKGSVPPPG
modifications: also: biotinylated, position not given here
notes: Immobilised in streptavidin wells; the entry carries one added C-terminal G; also called (242-260)
B5: CLPTM1 peptide LDQYVKFDAVSGDYYPIIYFG (SEQ ID NO: 263) (peptide)
peptide: LDQYVKFDAVSGDYYPIIYFG
modifications: also: biotinylated, position not given here
notes: Immobilised in streptavidin wells; the entry carries one added C-terminal G; also called (262-280)
B6: CLPTM1 peptide YPINESLASLPLRVSFCPLSG (SEQ ID NO: 269) (peptide)
peptide: YPINESLASLPLRVSFCPLSG
modifications: also: biotinylated, position not given here
notes: Immobilised in streptavidin wells; the entry carries one added C-terminal G; also called (292-311)

How the values were obtained:
GDF15 [1] = biological target: T1, GDF15 (Homo sapiens, UniProt Q99988); assay: Pull down of GDF15 by Fc fusion proteins with stringent washes; assay type: binding; settings: 20 μg Fc fusion protein, 0.5 μg GDF15, protein-G bead, FIG. 27
T1 construct: purchased Abcam
T1 sequence (Q99988 197-308 limits assumed): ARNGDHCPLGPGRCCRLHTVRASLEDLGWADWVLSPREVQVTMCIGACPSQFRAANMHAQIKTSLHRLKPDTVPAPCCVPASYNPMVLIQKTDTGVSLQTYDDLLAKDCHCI
Protocol: 20 μg Fc fusion protein constructs were incubated with 0.5 μg GDF15 and protein-G bead with mixing for 6 hrs in +4 C in PBST+1% BSAs. Wash 6 times: 3 times PBST, change tubes, 2 washes PBST+220 mM NaCl. Last wash PBS. The beads were collected using a table-top centrifuge set at 500 g for 5 minutes between washes. Detection The material was loaded on a 4-12% gradient gel, run at 100 volt, transferred to PVDF membrane using a Turbo Tank blot system, blocked by PBS with 3% BSA 1 hr RT, and incubated with RD systems a monoclonal anti-GDF15 antibody overnight. A secondary antibody: mouse HRP 1:2000 was used for detection. The size of band was estimated by comparing with a seeblue2 protein ladder marker run in an adjacent lane.
The fragments from the receptors were selected based on previous results including array data indicating direct interaction with GDF15. In the array, the interaction is between a peptide monomer and the ligand.

GDF15 [2] = biological target: T1, GDF15; assay: ELISA of GDF15 binding to immobilised biotinylated CLPTM1 derived peptides; settings: for binding of GDF15 to immobilised polypeptide: cut-off approximately greater than or equal to 0.1 OD
Protocol: (§1) Biotinylated synthetic peptide fragments from CLPTM1 (JPT peptides, Germany) were immobilized in a streptavidin 96 well plate (#15500 Pierce) at 1 μM in PBS over night at +4° C. Plate was washed 4 times in 300 μl PBS with 0.05% Tween-20 (wash buffer). The plate was blocked with PBS 1% BSA and 0.05% Tween-20 (blocking buffer) for 1.5 hours at room temperature then washed 4 times in wash buffer. GDF15 ligand (Abcam) was added in blocking buffer at 100 ng/ml at incubated at room temperature for 2 hours. The plate was then washed 8 times 300 μl in wash buffer with 2× NaCl. A GDF15 antibody as added at 1 ug/ml (RnD systems goat polyclonal) and incubated in block buffer for 1 hour at room temperature followed by washing with 4×300 μl wash buffer. HAF017 anti-goat-HRP antibody was added and incubated for 1 hour in blocking buffer followed by a wash. TMB substrate was added and stopped after 15 minutes with H2SO4. OD 450-620 was measured in an ELISA reader.
Polypeptides having sequences set forth in SEQ ID NOs:250-273 were assessed for binding to GDF15 (corresponding to the polypeptides indicated from left to right in FIG. 31). These proteins were synthesised with a C-terminal glycine residue not present in the corresponding sequences from CLPTM1. A cut-off of approximately greater than or equal to 0.1 OD in the ELISA readout was identified as indicating binding of the GDF15 to an immobilised polypeptide (i.e. including the 0.098 OD value for GDF15 binding to the polypeptide having the sequence set forth in SEQ ID NO:258).

QRFPR = biological target: T2, QRFPR (Homo sapiens, UniProt Q96P65); assay: ACTRIIB assay: in situ PLA detection of ACTRIIB at the cell surface after QRFPR agonist P518; assay type: cell-based
T2 construct: endogenous in cells
T2 sequence (Q96P65 1-431): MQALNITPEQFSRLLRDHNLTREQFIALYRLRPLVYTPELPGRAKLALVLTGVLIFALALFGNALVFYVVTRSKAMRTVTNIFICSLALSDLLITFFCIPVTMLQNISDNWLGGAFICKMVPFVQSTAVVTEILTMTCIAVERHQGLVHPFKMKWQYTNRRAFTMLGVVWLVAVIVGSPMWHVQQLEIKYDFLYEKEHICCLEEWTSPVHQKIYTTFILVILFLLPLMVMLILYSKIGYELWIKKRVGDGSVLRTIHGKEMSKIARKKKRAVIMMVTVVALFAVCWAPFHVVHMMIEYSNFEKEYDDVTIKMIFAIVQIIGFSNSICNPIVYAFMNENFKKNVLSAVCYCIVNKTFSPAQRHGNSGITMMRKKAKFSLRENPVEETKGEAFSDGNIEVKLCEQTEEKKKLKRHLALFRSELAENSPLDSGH
Excerpt: A-C) In situ detection of QRFPR at the cell surface. A) Negative control cells with no added GDF15. B) Cells after exposure to GDF15. C) Cells after exposure to GDF15+ synthetic peptide GEKEYDDVTIK derived from extracellular domain 4 of QRFPR. […] D-F) In situ PLA detection of ACTRIIB at the cell surface. D) Control cells with no added P518. E) Cells after exposure to P518. F) Cells after exposure to P518+ synthetic peptide GEKEYDDVTIK derived from extracellular domain 4 of QRFPR in 125 molar excess. The ability of P518 to increase the level of ACTRIIB at the cell surface was not affected by the peptide.
The effect of the QRFPR agonist p518 was measured. In short, p518/QRFP-26 was purchased from Phoenix Peptides, CA and processed according to the manufacturer's instructions. Cells were serum-starved prior to P518 stimulation overnight.
P518 was mixed with either PBS or QRFPR receptor fragment dissolved in PBS prior to stimulation of cells.

[3] = biological target: T3, Growth and differentiation factor 15 (GDF15) (UniProt Q99988 197-308, limits assumed); assay: ELISA, biotinylated peptide in streptavidin wells, GDF15 at 100 ng/ml
T3 construct: Purchased GDF15 added to cells, pull-downs, peptide arrays and ELISA; also called MIC1
T3 sequence (looked up): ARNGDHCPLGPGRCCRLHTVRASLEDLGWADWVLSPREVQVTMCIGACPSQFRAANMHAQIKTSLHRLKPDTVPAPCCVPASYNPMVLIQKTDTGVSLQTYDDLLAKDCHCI
Protocol: as §1, with “H₂SO₄.” for “H2SO4.”
Polypeptides having sequences set forth in SEQ ID NOs:250-273 were assessed for binding to GDF15 (corresponding to the polypeptides indicated from left to right in FIG. 31). These proteins were synthesised with a C-terminal glycine residue not present in the corresponding sequences from CLPTM1.

Row | Molecule | binding of GDF15 to immobilised polypeptide (GDF15 [2]; FIG. 31) | binding result [3] | also measured
1 | Fc mouse IgG1-GGGGSGGGGSGGGGSQRLEIKYDFLYEKEH ({Fc mouse IgG1}-GGGGSGGGGSGGGGSQRLEIKYDFLYEKEH) [AP5, Fc fusion protein with QRFPR peptide] |  |  | pull down of GDF15 by Fc fusion protein (GDF15 [1]): capable of pulling down GDF15
2 | GDYYPIIYFNDYWNLQKDYYG (listed as Homo sapiens) [SEQ ID NO:270] | showed binding to GDF15 |  | affinity for GDF15 (MIC1) within a panel of 24 CLPTM1 derived peptides (GDF15 [2]): highest affinity
3 | GSIYIHVYFTKSGFHPDPRQG (listed as Homo sapiens) [SEQ ID NO:258] | showed binding to GDF15 |  | OD value in the ELISA readout for GDF15 binding (GDF15 [2]; peptide immobilised at 1 μM, GDF15 100 ng/ml, OD 450-620, FIG. 31): 0.098 OD
4 | ITINIVDDHTPWVKGSVPPPG (listed as Homo sapiens) [SEQ ID NO:262] | showed binding to GDF15 |  | 
5 | KALYRRLATVHMSRMINKYKG (listed as Homo sapiens) [SEQ ID NO:259] | showed binding to GDF15 |  | 
6 | LDQYVKFDAVSGDYYPIIYFG (listed as Homo sapiens) [SEQ ID NO:263] | showed binding to GDF15 |  | 
7 | QRFP(43-mer): known agonist for QRFPR (QDEGSEATGFLPAAGEKTSGPLGNLAEELNGYSRKKGGFSFRF; ends and bridges not checked; UniProt P83859 91-133, looked up) |  |  | regulation of the levels of ACTRIIB by QRFPR agonists (QRFPR): act in opposite manner to each other
8 | YPINESLASLPLRVSFCPLSG (listed as Homo sapiens) [SEQ ID NO:269] | showed binding to GDF15 |  | 
9 | p518: QRFPR agonist purchased from Phoenix Peptides (TSGPLGNLAEELNGYSRKKGGFSFRF) |  |  | regulation of the levels of ACTRIIB by QRFPR agonists (QRFPR): act in opposite manner to each other; levels of ACTRIIB (QRFPR; p518 alone, serum-starved cells, overnight stimulation): sufficient to increase levels of ACTRIIB
10 | B1 |  |  | pull down of GDF15 by Fc fusion protein (GDF15 [1]): did not interact with GDF15
11 | B2 |  | binds | 
12 | B3 |  | binds | 
13 | B4 |  | binds | 
14 | B5 |  | binds | 
15 | B6 |  | binds | 
